The record followed here is US7018836.

The target in series [1] is human P-TEFb from HeLa extract, detected through its kinase subunit PITALRE (human). In words: cell-based or functional assay.
The next series deals with GST-Tat 1 86R (UniProt P04608).

Chain of human P-TEFb from HeLa extract, detected through its kinase subunit PITALRE (human) (P50750 whole entry): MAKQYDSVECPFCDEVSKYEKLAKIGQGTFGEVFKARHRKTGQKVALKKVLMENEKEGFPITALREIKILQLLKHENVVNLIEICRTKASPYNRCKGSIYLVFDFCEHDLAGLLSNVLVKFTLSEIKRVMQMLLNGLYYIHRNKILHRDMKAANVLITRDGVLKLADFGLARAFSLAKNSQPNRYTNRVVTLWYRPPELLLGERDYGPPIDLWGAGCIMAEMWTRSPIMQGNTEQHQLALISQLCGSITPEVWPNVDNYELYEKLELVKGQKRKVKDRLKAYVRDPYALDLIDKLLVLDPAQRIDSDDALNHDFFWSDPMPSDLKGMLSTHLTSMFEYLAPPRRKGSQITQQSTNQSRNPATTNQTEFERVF
Chain of GST-Tat 1 48Δ (P08515 1-218, tags or fused parts left off): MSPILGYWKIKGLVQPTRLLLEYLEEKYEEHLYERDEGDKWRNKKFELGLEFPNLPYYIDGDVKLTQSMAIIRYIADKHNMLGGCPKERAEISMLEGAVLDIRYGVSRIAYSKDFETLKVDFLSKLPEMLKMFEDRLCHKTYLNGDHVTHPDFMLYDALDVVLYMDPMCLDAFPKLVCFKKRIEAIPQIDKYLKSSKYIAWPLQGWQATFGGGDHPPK

Take “86 residue HIV-1 Tat followed by a streptavidin binding tag at its carboxyl terminus (from UniProt P04608 1-86)”: the runoff transcription from the HIV-1 LTR TAR template in HNE, continuous labeling in series [1] was determined as 12 fold.
Take “GST-Tat 1 48Δ (from UniProt P08515 1-218; P04608 1-48)”: the TAK activity (assayed by GST-Tat48A pull-down) after depletion of human P-TEFb from HNE by antibodies to PITALRE in series [1] was < 2%.
As to “human P-TEFb from HeLa extract, detected through its kinase subunit PITALRE”, the “phosphorylation of the CTD of RNA polymerase II” value with GST-Tat 1 86R is “The GST-Tat 1 86R/P-TEFb protein complex can phosphorylate the CTD of RNA polymerase II”.
